# The supplement of paper PMC9112550, “Optimization of the antimicrobial peptide Bac7 by deep mutational scanning” (BMC Biology, 2022)
# System: Escherichia coli TOP10
# Assay: shrunken log2 fold change of peptide-encoding DNA abundance (4.5 h post-induction vs induction); higher = less antimicrobial activity (less host growth inhibition)
# Conditions: time post-induction: 4.5 h; library: site-saturation at positions 5, 18, 19, 20
# 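Further: peptides expressed intracellularly from a pBAD plasmid library in pooled LB shake-flask culture, induced with 0.3% L-arabinose, DNA abundance read by NGS, three biological replicates, DESeq2 with apeglm shrinkage.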
row,Sequence,shrunken log2 fold change
1,RRIRLRPPRLPRPRPRPDGRPRP,-0.00938
2,RRIRVRPPRLPRPRPRPDHMPRP,-0.384
3,RRIRERPPRLPRPRPRPDEDPRP,-0.209
4,RRIRCRPPRLPRPRPRPEEMPRP,0.028
5,RRIRQRPPRLPRPRPRPEQLPRP,-0.0643
6,RRIRCRPPRLPRPRPRPESKPRP,0.198
7,RRIRWRPPRLPRPRPRPRYEPRP,0.0756
8,RRIRSRPPRLPRPRPRPIGWPRP,0.142
9,RRIRFRPPRLPRPRPRPTLKPRP,-0.0426
10,RRIRGRPPRLPRPRPRPTGMPRP,0.851
11,RRIRHRPPRLPRPRPRPEFQPRP,-0.0862
12,RRIRLRPPRLPRPRPRPCKYPRP,-0.0018
13,RRIRPRPPRLPRPRPRPCDIPRP,0.024
14,RRIRARPPRLPRPRPRPADEPRP,0.678
15,RRIRFRPPRLPRPRPRPWVIPRP,-0.412
16,RRIRDRPPRLPRPRPRPAPQPRP,0.983
17,RRIRGRPPRLPRPRPRPDNPPRP,0.0274
18,RRIRNRPPRLPRPRPRPEATPRP,0.556
19,RRIRRRPPRLPRPRPRPRKNPRP,0.179
20,RRIRFRPPRLPRPRPRPSSLPRP,-0.856
21,RRIRWRPPRLPRPRPRPTQAPRP,1.45
22,RRIRFRPPRLPRPRPRPMQWPRP,-0.113
23,RRIRKRPPRLPRPRPRPGILPRP,0.28
24,RRIRDRPPRLPRPRPRPRQTPRP,0.612
25,RRIRQRPPRLPRPRPRPWVRPRP,-0.112

row,Sequence,shrunken log2 fold change
1,RRIRPRPPRLPRPRPRPLVNPRP,-0.549
2,RRIRGRPPRLPRPRPRPRHPPRP,0.442
3,RRIRYRPPRLPRPRPRPVTEPRP,-0.134
4,RRIRGRPPRLPRPRPRPDGDPRP,0.265
5,RRIRARPPRLPRPRPRPQWAPRP,0.156
6,RRIRCRPPRLPRPRPRPMPMPRP,-0.174
7,RRIRTRPPRLPRPRPRPFNIPRP,-0.333
8,RRIRVRPPRLPRPRPRPVIQPRP,-0.336
9,RRIRHRPPRLPRPRPRPMFQPRP,-0.0107
10,RRIRIRPPRLPRPRPRPFQGPRP,0.0801
11,RRIRVRPPRLPRPRPRPIKLPRP,-0.486
12,RRIRCRPPRLPRPRPRPNCFPRP,-0.0988
13,RRIRPRPPRLPRPRPRPAHQPRP,0.387
14,RRIRWRPPRLPRPRPRPPHFPRP,0.701
15,RRIRLRPPRLPRPRPRPHNQPRP,-0.479
16,RRIRIRPPRLPRPRPRPFFHPRP,-0.575
17,RRIRGRPPRLPRPRPRPDSKPRP,0.125
18,RRIRCRPPRLPRPRPRPQFEPRP,0.000801
19,RRIRNRPPRLPRPRPRPICDPRP,-0.119
20,RRIRYRPPRLPRPRPRPFHLPRP,-0.532
21,RRIRVRPPRLPRPRPRPALSPRP,0.414
22,RRIRLRPPRLPRPRPRPCLNPRP,-0.0428
23,RRIRKRPPRLPRPRPRPCHYPRP,-0.117
24,RRIRYRPPRLPRPRPRPRVCPRP,0.0157
25,RRIRMRPPRLPRPRPRPPYRPRP,0.00408

row,Sequence,shrunken log2 fold change
1,RRIRCRPPRLPRPRPRPEYCPRP,-0.0902
2,RRIRVRPPRLPRPRPRPCHNPRP,-0.362
3,RRIRARPPRLPRPRPRPMFRPRP,-0.217
4,RRIRHRPPRLPRPRPRPIVVPRP,0.0062
5,RRIRARPPRLPRPRPRPHALPRP,0.112
6,RRIRERPPRLPRPRPRPTVAPRP,0.075
7,RRIRTRPPRLPRPRPRPYAEPRP,-0.612
8,RRIRMRPPRLPRPRPRPLDHPRP,0.103
9,RRIRYRPPRLPRPRPRPGGIPRP,-0.0836
10,RRIRHRPPRLPRPRPRPNHAPRP,-0.223
11,RRIRTRPPRLPRPRPRPGMWPRP,0.158
12,RRIRYRPPRLPRPRPRPKKMPRP,-0.374
13,RRIRHRPPRLPRPRPRPSVPPRP,-0.0518
14,RRIRPRPPRLPRPRPRPNMYPRP,-0.746
15,RRIRFRPPRLPRPRPRPRNVPRP,-0.372
16,RRIRQRPPRLPRPRPRPHQEPRP,-0.00692
17,RRIRYRPPRLPRPRPRPYQPPRP,0.0857
18,RRIRTRPPRLPRPRPRPTASPRP,0.0344
19,RRIRNRPPRLPRPRPRPAWAPRP,-0.0271
20,RRIRPRPPRLPRPRPRPMDKPRP,-0.0612
21,RRIRERPPRLPRPRPRPFRLPRP,-0.51
22,RRIRKRPPRLPRPRPRPKNRPRP,0.226
23,RRIRKRPPRLPRPRPRPITDPRP,-0.128
24,RRIRSRPPRLPRPRPRPPMPPRP,0.486
25,RRIRYRPPRLPRPRPRPFNEPRP,-1.01
